To fix the notation:
B1: PRT-413 (protein)
chain: MTITSVWTKGVTPPTPEDFRENNEDVLHAPYVANQGWYDITKTFDGKDNLLCGAATAGNMLHWWFDQNKEEIERYLKKHPEKQKIIFNNQELFDVKAAIDTKDSQTNSKLFNYFRDKAFPNLSARQLGVMPDLVLDMFINGYYLNLGKTQSTDVNRPYQDKDKRGGIFDAVFTRGDQTTLLTARHDLKNKGLNEISDLIKQELTEGKALALSHTYANVRINHVINLWGADFDAEGNLIAIYVTDSDANASIGMKKYFVGVNANGKVAISAKKIEGDNIGAQVLGLFTLSTGQDIWQKLS
B2: PRT-429 (protein)
chain: B1 chain with E21Y, N248R
B3: PRT-422 (protein)
chain: B1 chain with E21Y, A249P
B4: PRT-414 (protein)
chain: B1 chain with E21Y, N88G
B5: PRT-421 (protein)
chain: B1 chain with E21Y, N112D
B6: PRT-437 (protein)
chain: MSQTEDSESLQRLRDIEDFQAEKKKQNVVYTKWLDGVDVKDHDFRKIVDGNEAYYATPLLNGRGFYDINKDFNRDSDKCAAAVAANMFHYWLDRNRDNVDRFLRQNPEKHGIIELPDGQLKLSDFLNTYESDDGYRDKSKLFDFISNNFNGPVWTDKLLDNYINGYAYNYKYGRTIEDPTKNTSKINFFKEVFNEKILTNNHSIRNQNEFSVLLSEALYTGKAIGLSYGPAGLRHSLGHIISVWGADLDADGNVVAIYVTDSDDKKLTIGDERVGLKRYKISTDDEGRLRLTAYEETHNTGGQIRGLWTLDTGKQAWADYFDKTEQTGTDQAEQ
B7: PRT-382 (protein)
chain: MVTSVWTKGVTPPTNFTYGEDVLHAPYVANQGWYDITKTFNGKDDLLCGAATAGNMLHWWFDQNKEQIENYLKKHPEKQKINFNGEQMFDVKEAIDTKDSQLDSKLFEYFKEKAFPYLSTKHLGVFPDHVIDMFINGYRLSLTNHGPTPVKRGSKDPRGGIFDAVFTRGDQSKLLTNRHDFKEKTLKEISDLIKQELTEGKALGISHTYANVRINHVINLWGADFDAEGNLEAIYVTDSDSNASIGMKKYVVGVNSNGKVAISAKEIEEDNIGAQVLGLFTLSTGQDIWNQTN
B8: PRT-383 (protein)
chain: B7 chain with E108D, V251F
B9: PRT-390 (protein)
chain: B7 chain with M88L, V251F
B10: PRT-391 (protein)
chain: B7 chain with P157K, V251F
B11: PRT-398 (protein)
chain: MVTSVWTKGVTPPADFTQGEDVFHAPYVANQGWYDITKTFNGKDDLLCGAATAGNMLHWWFDQNKEYIEAYLKKHPEKQKIMFGDQELLDVRKAINTKGSQKNSELFNYFRDKAFPNLSARRLGVMPDLVLDMFINGYYLNVTKTQTTDVNRTYQEKDKRGGIFDAVFTRGDQSKLLTSRHDFKEKGLKEISDLIKQELTEGKALGLSHTYANVRINHVINLWGADFDSDGNLKAIYVTDSDSNASIGMKKYDVGVNSAGKVAISAKEIKEDNIGAQVLGLFTLSTGQDIWNQTN
B12: PRT-406 (protein)
chain: B11 chain with G42R, D253F
B13: PRT-399 (protein)
chain: B11 chain with D253V
B14: PRT-407 (protein)
chain: B11 chain with M82I, D253F

Where a chain is given by its changes, count along the chain named.

The target of the data set is pooled human IgG (human IgG1, 2, 3 and 4).
In the case of B1, the Enzyme Activity Endpoint Assay (purified): Fab′2 stood at 485 ng/µL, the Enzyme Activity Endpoint Assay (purified): Fc turned out to be 347 ng/µL, the Enzyme Activity Endpoint Assay (purified): IgG amounted to 14 ng/µL and the Enzyme Activity Endpoint Assay (purified): scIgG is 152 ng/µL.
The like results for B2 were, in that order, 528 ng/µL, 348 ng/µL, 57 ng/µL and 171 ng/µL.
For B3, the Enzyme Activity Endpoint Assay (purified): Fab′2 was 494 ng/µL, the Enzyme Activity Endpoint Assay (purified): Fc was determined as 348 ng/µL, the Enzyme Activity Endpoint Assay (purified): IgG was 69 ng/µL and the Enzyme Activity Endpoint Assay (purified): scIgG was found to be 136 ng/µL. This protein also registered an Enzyme Activity Endpoint Assay: Fab′2 of 494 ng/µL, an Enzyme Activity Endpoint Assay: Fc of 348 ng/µL, an Enzyme Activity Endpoint Assay: IgG of 69 ng/µL and an Enzyme Activity Endpoint Assay: scIgG of 136 ng/µL.
In the case of B4, the Enzyme Activity Endpoint Assay (purified): Fab′2 worked out at 496 ng/µL, the Enzyme Activity Endpoint Assay (purified): Fc stood at 341 ng/µL, the Enzyme Activity Endpoint Assay (purified): IgG is 77 ng/µL and the Enzyme Activity Endpoint Assay (purified): scIgG stood at 129 ng/µL. This protein came in with an Enzyme Activity Endpoint Assay: Fab′2 of 496 ng/µL, an Enzyme Activity Endpoint Assay: Fc of 341 ng/µL, an Enzyme Activity Endpoint Assay: IgG of 77 ng/µL and an Enzyme Activity Endpoint Assay: scIgG of 129 ng/µL.
B5 showed an Enzyme Activity Endpoint Assay (purified): Fab′2 of 612 ng/µL, an Enzyme Activity Endpoint Assay (purified): Fc of 340 ng/µL, an Enzyme Activity Endpoint Assay (purified): IgG of 71 ng/µL and an Enzyme Activity Endpoint Assay (purified): scIgG of 0 ng/µL.
In turn, B6 came in with an Enzyme Activity Endpoint Assay (purified): Fab′2 of 445 ng/µL, an Enzyme Activity Endpoint Assay (purified): Fc of 306 ng/µL, an Enzyme Activity Endpoint Assay (purified): IgG of 0 ng/µL and an Enzyme Activity Endpoint Assay (purified): scIgG of 263 ng/µL. The protein also displayed an Enzyme Activity Endpoint Assay: Fab′2 of 445 ng/µL, an Enzyme Activity Endpoint Assay: Fc of 306 ng/µL, an Enzyme Activity Endpoint Assay: IgG of 0 ng/µL and an Enzyme Activity Endpoint Assay: scIgG of 263 ng/µL.
B7 showed an Enzyme Activity Endpoint Assay (purified): Fab′2 of 585 ng/µL, an Enzyme Activity Endpoint Assay (purified): Fc of 380 ng/µL, an Enzyme Activity Endpoint Assay (purified): IgG of 0 ng/µL and an Enzyme Activity Endpoint Assay (purified): scIgG of 226 ng/µL.
Regarding B8, the Enzyme Activity Endpoint Assay (purified): Fab′2 worked out at 581 ng/µL, the Enzyme Activity Endpoint Assay (purified): Fc is 379 ng/µL, the Enzyme Activity Endpoint Assay (purified): IgG was found to be 0 ng/µL and the Enzyme Activity Endpoint Assay (purified): scIgG is 230 ng/µL. The protein further gave an Enzyme Activity Endpoint Assay: Fab′2 of 581 ng/µL, an Enzyme Activity Endpoint Assay: Fc of 379 ng/µL, an Enzyme Activity Endpoint Assay: IgG of 0 ng/µL and an Enzyme Activity Endpoint Assay: scIgG of 230 ng/µL.
The protein B9 came in with an Enzyme Activity Endpoint Assay (purified): Fab′2 of 578 ng/µL, an Enzyme Activity Endpoint Assay (purified): Fc of 371 ng/µL, an Enzyme Activity Endpoint Assay (purified): IgG of 0 ng/µL and an Enzyme Activity Endpoint Assay (purified): scIgG of 227 ng/µL. This protein also yielded an Enzyme Activity Endpoint Assay: Fab′2 of 578 ng/µL, an Enzyme Activity Endpoint Assay: Fc of 371 ng/µL, an Enzyme Activity Endpoint Assay: IgG of 0 ng/µL and an Enzyme Activity Endpoint Assay: scIgG of 227 ng/µL.
For B10, the Enzyme Activity Endpoint Assay (purified): Fab′2 came out at 498 ng/µL, the Enzyme Activity Endpoint Assay (purified): Fc is 361 ng/µL, the Enzyme Activity Endpoint Assay (purified): IgG was 29 ng/µL and the Enzyme Activity Endpoint Assay (purified): scIgG was 192 ng/µL. For the same protein, the Enzyme Activity Endpoint Assay: Fab′2 was 498 ng/µL, the Enzyme Activity Endpoint Assay: Fc was 361 ng/µL, the Enzyme Activity Endpoint Assay: IgG was found to be 29 ng/µL and the Enzyme Activity Endpoint Assay: scIgG worked out at 192 ng/µL.
Take B11: the Enzyme Activity Endpoint Assay (purified): Fab′2 was found to be 555 ng/µL, the Enzyme Activity Endpoint Assay (purified): Fc amounted to 370 ng/µL, the Enzyme Activity Endpoint Assay (purified): IgG turned out to be 0 ng/µL and the Enzyme Activity Endpoint Assay (purified): scIgG turned out to be 196 ng/µL. The protein also registered an Enzyme Activity Endpoint Assay: Fab′2 of 555 ng/µL, an Enzyme Activity Endpoint Assay: Fc of 370 ng/µL, an Enzyme Activity Endpoint Assay: IgG of 0 ng/µL and an Enzyme Activity Endpoint Assay: scIgG of 196 ng/µL.
For B12, the Enzyme Activity Endpoint Assay (purified): Fab′2 worked out at 435 ng/µL, the Enzyme Activity Endpoint Assay (purified): Fc was found to be 299 ng/µL, the Enzyme Activity Endpoint Assay (purified): IgG is 135 ng/µL and the Enzyme Activity Endpoint Assay (purified): scIgG amounted to 108 ng/µL. The Enzyme Activity Endpoint Assay: Fab′2 worked out at 435 ng/µL, the Enzyme Activity Endpoint Assay: Fc worked out at 299 ng/µL, the Enzyme Activity Endpoint Assay: IgG was determined as 135 ng/µL and the Enzyme Activity Endpoint Assay: scIgG stood at 108 ng/µL.
In the case of B13, the Enzyme Activity Endpoint Assay (purified): Fab′2 was found to be 0 ng/µL, the Enzyme Activity Endpoint Assay (purified): Fc worked out at 0 ng/µL, the Enzyme Activity Endpoint Assay (purified): IgG came out at 1580 ng/µL and the Enzyme Activity Endpoint Assay (purified): scIgG was 0 ng/µL. The protein further displayed an Enzyme Activity Endpoint Assay: Fab′2 of 0 ng/µL, an Enzyme Activity Endpoint Assay: Fc of 0 ng/µL, an Enzyme Activity Endpoint Assay: IgG of 1580 ng/µL and an Enzyme Activity Endpoint Assay: scIgG of 0 ng/µL.
Regarding B14, the Enzyme Activity Endpoint Assay (purified): Fab′2 was 209 ng/µL, the Enzyme Activity Endpoint Assay (purified): Fc was determined as 277 ng/µL, the Enzyme Activity Endpoint Assay (purified): IgG was determined as 90 ng/µL and the Enzyme Activity Endpoint Assay (purified): scIgG came to 396 ng/µL. Moreover, the Enzyme Activity Endpoint Assay: Fab′2 amounted to 209 ng/µL, the Enzyme Activity Endpoint Assay: Fc was found to be 277 ng/µL, the Enzyme Activity Endpoint Assay: IgG is 90 ng/µL and the Enzyme Activity Endpoint Assay: scIgG came to 396 ng/µL.

The values are drawn from patent US20250027068.
